Source: patent publication US20040043420A1, “Method of identifying conformation-sensitive binding peptides and uses thereof” (priority 2003, published 2004)
Where a chain is given by its changes, count along the chain named. No end group written: not given here.

T1: ER α (UniProt P03372 1-595, limits assumed)
T1 construct: also called estrogen receptor α; ERα-ERE
T1 sequence (looked up): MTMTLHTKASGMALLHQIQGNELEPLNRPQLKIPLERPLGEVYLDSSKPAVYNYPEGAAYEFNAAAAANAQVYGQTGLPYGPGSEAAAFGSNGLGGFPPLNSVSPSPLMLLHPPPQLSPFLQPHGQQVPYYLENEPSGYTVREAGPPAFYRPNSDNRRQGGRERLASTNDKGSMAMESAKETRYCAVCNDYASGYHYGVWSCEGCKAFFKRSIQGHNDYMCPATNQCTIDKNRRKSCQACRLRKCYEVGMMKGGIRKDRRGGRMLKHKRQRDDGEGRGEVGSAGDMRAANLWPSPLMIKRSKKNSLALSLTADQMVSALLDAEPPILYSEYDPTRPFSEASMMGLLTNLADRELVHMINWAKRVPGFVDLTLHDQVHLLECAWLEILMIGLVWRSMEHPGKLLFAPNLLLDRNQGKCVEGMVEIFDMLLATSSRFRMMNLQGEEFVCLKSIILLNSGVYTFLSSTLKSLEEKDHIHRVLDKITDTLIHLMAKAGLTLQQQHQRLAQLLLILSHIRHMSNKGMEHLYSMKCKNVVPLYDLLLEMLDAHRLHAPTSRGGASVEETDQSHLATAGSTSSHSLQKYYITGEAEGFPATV

T2: estrogen receptor (ER) α as a carboxy-terminal fusion to the Gal4-activation domain (yeast, UniProt P03372 1-595, limits assumed)
T2 sequence (looked up): T1 sequence (looked up)

B1: B1A1 (peptide)
chain: MKLLSSIEQACDICRLKKLKCSKEKPKCAKCLKNNWECRYSPKTKRSPLTRAHLTEVESRLERLEQLFLLIFPREDLDMILKMDSLQDIKALLTGLFVQDNVNKDAVTDRLASVETDMPLTLRQHRISATSSSEESSNKGQRQLTVSEFCPVGLLVHLLMQ
B2: B1G8 (peptide)
chain: B1 chain with C150T, P151S, G153S, L154R, H157T, M160L
B3: B3E2 (peptide)
chain: MKLLSSIEQACDICRLKKLKCSKEKPKCAKCLKNNWECRYSPKTKRSPLTRAHLTEVESRLERLEQLFLLIFPREDLDMILKMDSLQDIKALLTGLFVQDNVNKDAVTDRLASVETDMPLTLRQHRISATSSSEESSNKGQRQLTVSEFGGSVLLRELLCCYDALEPTTTR
B4: B6A1 (peptide)
chain: MKLLSSIEQACDICRLKKLKCSKEKPKCAKCLKNNWECRYSPKTKRSPLTRAHLTEVESRLERLEQLFLLIFPREDLDMILKMDSLQDIKALLTGLFVQDNVNKDAVTDRLASVETDMPLTLRQHRISATSSSEESSNKGQRQLTVSEFTGSRLLLKLLRFPDSSTCSQA
B5: B5H10 (peptide)
chain: MKLLSSIEQACDICRLKKLKCSKEKPKCAKCLKNNWECRYSPKTKRSPLTRAHLTEVESRLERLEQLFLLIFPREDLDMILKMDSLQDIKALLTGLFVQDNVNKDAVTDRLASVETDMPLTLRQHRISATSSSEESSNKGQRQLTVSEFSPPSSLLALLLGGKSLEPLPIRYKNVKRQFTSNSRGSVDLQPS
B6: B6C4 (peptide)
chain: MKLLSSIEQACDICRLKKLKCSKEKPKCAKCLKNNWECRYSPKTKRSPLTRAHLTEVESRLERLEQLFLLIFPREDLDMILKMDSLQDIKALLTGLFVQDNVNKDAVTDRLASVETDMPLTLRQHRISATSSSEESSNKGQRQLTVSEFDRSSILVSLLSMVETLDLQPS

The binders below were run against T1, ER α (assay: phage isolated on ERα on plastic; ICI 182,780).
Throughout, for Fold Induction (ligand-induced β-galactosidase, two-hybrid): test concentration or dose not given here.

Binder | binding result
SSSTPGWWEWDWASR [1PI] | binds
SSRTAEDYCFFADDYWCSR (also called 16E) [3PI] | binds
SSYWDGSWRRKETCVSCSR [2PI] | binds
SSRALALFPVGMESR [4PI] | binds

What follows are binders tested against T2, estrogen receptor (ER) α as a … (assay: cell-based or functional assay).

Binder | Fold Induction (ligand-induced β-galactosidase, two-hybrid) [fold]
B1 | 11
B2 | 6
B3 | 3.5
B4 | 3.5
B5 | 4.5
B6 | 2.5

Each binder was assayed against T1, ER α (assay: phage isolated on ERα-ERE; Buffer).

Binder | binding result
SSRPSPSFWEKQLSR [4B] | binds
SSRPDAAFFGAKLSR [3B] | binds
SSRPTAEWFRENLSR [5B] | binds
SRWWDTSWWLEELSR [6B] | binds
SSDWCFGWGGWCASEAVSR (not fully specified; cysteine pairing not given here) [10B] | binds
SRSYHGEWGVWTLSR [7B] | binds
SRNWDWAALELLPYPHPSR [9B] | binds
SSRIADLFWRLEPSR [1B] | binds
